# The supplement of paper PMC10567573
# B1: CLPTM1 (parent)
# chain: MNLHVYISEHEHFTDFNATSALFW
# Variants of: B1
# Test: protein stability index of a GFP-peptide fusion (GPS, HEK-293T) (PSI 1-6); higher = more stable
# Conditions: c terminus: a fixed tail appended
# 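Note: lentivirally expressed fusions sorted by FACS into six bins by GFP to DsRed ratio, PSI derived from sequencing read proportions per bin multiplied by bin number.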
row,Variant,protein stability index
1,T14K,3.17
2,T14V,1.81
3,T14P,4.65
4,T14Q,2.62
5,T14E,3.86
6,T14A,3.39
7,T14C,3.04
8,T14H,4.34
9,T14M,4.02
10,T14Y,1.62
11,T14S,3.26
12,T14I,2.23
13,E11F,3.56
14,E11Q,2.87
15,E11A,1.98
16,E11C,3.77
17,E11M,3.46
18,E11T,2.47
19,E11D,2.39
20,E11I,2.42
21,E11V,4.02
22,E11Y,3.67
23,L3T,1.47
24,L3Q,1.42

row,Variant,protein stability index
1,L3D,2.44
2,L3S,2.15
3,L3R,1.96
4,L3V,1.14
5,L3M,2.18
6,L3E,2.62
7,L3P,1.52
8,L3I,3.08
9,L3C,1.94
10,L3W,1.98
11,L3G,2.78
12,L3F,2.7
13,L3K,1.9
14,L3N,1.2
15,V5E,1.34
16,V5L,2.05
17,V5D,2.1
18,V5W,4.32
19,V5I,3.89
20,V5Y,2.24
21,V5K,2.01
22,V5N,1.39
23,V5H,2.42
24,V5T,1.76

row,Variant,protein stability index
1,V5A,2.42
2,V5M,3.04
3,V5S,3.51
4,V5Q,1.48
5,F13P,2.63
6,F13N,3.8
7,F13Q,2.2
8,F13W,4.9
9,F13K,4.65
10,F13H,2.67
11,F13V,2.63
12,F13S,2.4
13,F13T,1.95
14,F13R,2.5
15,F13G,2.42
16,F13E,3.52
17,F13A,3.39
18,F13L,4.51
19,F13C,2.51
20,Y6D,2.1
21,Y6K,3.26
22,Y6L,3.45
23,Y6F,2.84
24,Y6R,3.35

row,Variant,protein stability index
1,Y6A,2.15
2,Y6N,2.22
3,Y6C,2.52
4,Y6T,4.82
5,Y6P,1.49
6,Y6Q,2.4
7,Y6E,2.93
8,Y6H,2.59
9,Y6S,3.07
10,Y6I,2.61
11,N2D,1.53
12,N2M,2.77
13,N2Q,1
14,N2V,3.88
15,N2S,4.89
16,N2T,2.58
17,N2L,2.57
18,N2F,3.32
19,N2I,2.04
20,N2Y,2.55
21,N2C,2.73
22,N2G,2.73
23,N2P,1.55
24,I7Y,4.01

row,Variant,protein stability index
1,I7F,2.58
2,I7R,3.14
3,I7N,3.55
4,I7M,3.09
5,I7C,2
6,I7K,2.96
7,I7H,1.79
8,I7G,2.92
9,I7W,2.65
10,I7A,2.6
11,I7D,2.53
12,I7L,2.45
13,I7S,2.45
14,I7E,2.48
15,I7V,3.33
16,D15C,2.43
17,D15A,3.71
18,H4Q,2.12
19,H4K,1.99
20,H4W,4.27
21,H4F,1.89
22,H4M,2.69
23,H4E,1.45
24,H4I,2.62

row,Variant,protein stability index
1,H4L,2.97
2,H4Y,4.32
3,H4P,1.43
4,H4R,5.47
5,S8R,3.37
6,S8T,2.08
7,S8W,3.59
8,S8L,2.96
9,S8P,3.32
10,S8I,1.69
11,S8D,3.18
12,S8Y,2.98
13,S8H,3.35
14,M1Y,2.55
15,H12M,2.39
16,H12Q,1.98
17,H12W,3.67
18,H12L,1.41
19,H12Y,2.77
20,H12S,1.83
21,H12T,2.1
22,H12F,3.38
23,H12C,2.72
24,H12P,2.64

row,Variant,protein stability index
1,H10M,2.73
2,H10I,1.28
3,H10D,2.41
4,H10G,2.58
5,H10T,3.76
6,H10C,2.77
7,H10V,1.99
8,H10P,2.64
9,H10E,2.77
10,H10S,2.59
11,E9M,3.76
12,E9A,2.82
13,E9T,2.48
14,E9Y,2.5
15,E9G,4.46
16,E9Q,2.96
17,E9V,3.22
18,E9P,1.5
19,E9N,3.59
20,E9L,1.96
21,E9K,2.52
22,E9F,2.28
23,E9H,4.25
